Values belong to the binder of their own block, whether it stands above or below them.
How the values were obtained:
pol κ = target: T1, pol κ (UniProt Q9UBT6 1-870); experiment: yeast two-hybrid
T1 construct: Tested in yeast two-hybrid (GAL4 domain fusion); also called primary protein product of the POLK
T1 sequence (looked up): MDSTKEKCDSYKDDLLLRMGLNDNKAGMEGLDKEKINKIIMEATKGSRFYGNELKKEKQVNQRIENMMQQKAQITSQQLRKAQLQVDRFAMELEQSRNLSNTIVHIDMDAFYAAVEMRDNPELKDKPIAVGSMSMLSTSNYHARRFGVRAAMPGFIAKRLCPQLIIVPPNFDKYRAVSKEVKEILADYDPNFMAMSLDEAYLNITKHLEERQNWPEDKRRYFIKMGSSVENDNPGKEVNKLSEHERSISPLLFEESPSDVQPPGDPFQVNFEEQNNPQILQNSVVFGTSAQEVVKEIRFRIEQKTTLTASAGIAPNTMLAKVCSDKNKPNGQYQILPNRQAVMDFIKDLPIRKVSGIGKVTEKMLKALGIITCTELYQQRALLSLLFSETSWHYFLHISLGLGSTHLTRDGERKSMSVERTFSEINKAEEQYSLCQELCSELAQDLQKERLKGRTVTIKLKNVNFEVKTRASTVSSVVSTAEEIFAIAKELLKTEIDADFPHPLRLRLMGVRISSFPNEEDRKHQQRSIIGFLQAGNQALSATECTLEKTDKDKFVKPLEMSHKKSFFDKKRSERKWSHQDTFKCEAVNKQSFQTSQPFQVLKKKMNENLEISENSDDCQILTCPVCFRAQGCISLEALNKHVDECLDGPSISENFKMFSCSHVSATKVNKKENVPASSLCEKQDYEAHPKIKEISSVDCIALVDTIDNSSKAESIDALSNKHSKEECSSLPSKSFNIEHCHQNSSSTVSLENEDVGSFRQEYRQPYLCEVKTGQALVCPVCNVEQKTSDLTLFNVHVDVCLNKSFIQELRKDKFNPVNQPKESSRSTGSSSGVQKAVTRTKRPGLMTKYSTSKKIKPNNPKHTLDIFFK

[1] = target: the molecule itself; experiment: yeast two-hybrid with I-20 deletion mutants
Protocol: The production of additional I-20 deletion mutants and their use in specific two hybrid studies permitted the identification of two specific regions of I-20 that are essential for GPBP interaction as well as the identification of other residues directly involved but not essential for the interaction (FIG. 4).
Deletion mutants were obtained using specific primers and PCR, followed by cloning of the resulting cDNAs in the pGBT9 and pGAD424 vectors. The assays were performed in SFY526 or HF7c Saccharomyces cerevisiae strains, with pGBT9 as GAL4 binding domain vector and pGAD424 as GAL4 activation domain vector, by the lift colony assay procedure. Briefly, the yeast cells were co-transformed with constructs of both binding domain and activation domain vectors, and the co-transformants were selected in medium deficient in both tryptophan and leucine. After five days of incubation at 30° C. the colonies were tested for the expression of β-galactosidase with X-Gal substrate (0.75 mg/ml). […] When the assays were performed with the HF7c strain, the interactions were assessed by the lift colony assay procedure and by growth in medium deficient in histidine, tryptophan and leucine.

[2] = target: T2, Goodpasture antigen binding protein (GPBP) (UniProt Q9Y5P4 1-624); experiment: yeast two-hybrid, β-galactosidase colony lift
T2 construct: Protein kinase; Fusion parts are not written as pieces
T2 sequence (looked up): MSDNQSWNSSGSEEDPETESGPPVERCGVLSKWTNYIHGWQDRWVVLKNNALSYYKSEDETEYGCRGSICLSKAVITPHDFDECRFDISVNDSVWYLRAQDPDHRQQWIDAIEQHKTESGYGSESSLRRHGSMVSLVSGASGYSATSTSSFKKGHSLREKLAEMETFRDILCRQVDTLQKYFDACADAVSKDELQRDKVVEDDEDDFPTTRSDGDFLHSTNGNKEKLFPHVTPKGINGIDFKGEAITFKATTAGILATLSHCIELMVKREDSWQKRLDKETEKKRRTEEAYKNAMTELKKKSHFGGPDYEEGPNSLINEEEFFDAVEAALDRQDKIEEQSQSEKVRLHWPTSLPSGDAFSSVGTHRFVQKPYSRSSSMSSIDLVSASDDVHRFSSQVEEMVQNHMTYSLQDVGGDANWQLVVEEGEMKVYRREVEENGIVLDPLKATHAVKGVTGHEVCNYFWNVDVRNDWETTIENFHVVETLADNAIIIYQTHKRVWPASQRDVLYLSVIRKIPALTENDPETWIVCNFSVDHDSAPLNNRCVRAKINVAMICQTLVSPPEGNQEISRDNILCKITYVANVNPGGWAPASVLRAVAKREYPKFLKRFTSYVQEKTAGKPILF
Protocol: Deletion mutants were obtained using specific primers and PCR, followed by cloning of the resulting cDNAs in the pGBT9 and pGAD424 vectors. The assays were performed in SFY526 or HF7c Saccharomyces cerevisiae strains, with pGBT9 as GAL4 binding domain vector and pGAD424 as GAL4 activation domain vector, by the lift colony assay procedure. Briefly, the yeast cells were co-transformed with constructs of both binding domain and activation domain vectors, and the co-transformants were selected in medium deficient in both tryptophan and leucine. After five days of incubation at 30° C. the colonies were tested for the expression of β-galactosidase with X-Gal substrate (0.75 mg/ml). […] When the assays were performed with the HF7c strain, the interactions were assessed by the lift colony assay procedure and by growth in medium deficient in histidine, tryptophan and leucine. For yeast three-hybrid system, we used the pBRIDGE vector, which allows the conditional expression of a third protein apart from the usual GAL4 binding and activation domain-fusion proteins of the two-hybrid system. In this case, the expression of GPBP or I-20 or GIP90 was driven by Met25 promoter, active in absence of methionine. In these experiments, the transformed SFY526 cells were plated in medium deficient in tryptophan, leucine and methionine, and subjected to the colony lift assay after five days at 30° C. […]

[3] = target: T2, Goodpasture antigen binding protein …; experiment: yeast two-hybrid

- binding result (pol κ): no binding
- binding result [2]: binds
B1: I-20 (other)
chain: RDEVIGILKAEKMDLALLEAQYGFVTPKKVLEALQRDAFQAKSTPWQEDIYEKPMNELDKVVEKHKESYRRILGQLLVAEKSRRQTILELEEEKRKHKEYMEKSDEFICLLEQECERLKKLIDQEIKSQEEKEQEKEKRVTTLKEELTKLKSFALMVVDEQQRLTAQLTLQRQKIQELTTNAKETHTKLALAEARVQEEEQKATRLEKELQTQTTKFHQDQDTIMAKLTNEDSQNRQLQQKLAALSRQIDELEETNRSLRKAEEE
notes: Tested as GAL4 domain fusion in yeast two-hybrid and three-hybrid; fusion parts are not written as pieces; also called 265 residue polypeptide I-20
- binding result [1]: binds

- binding result [3]: no binding
B2: GIP90 with deletion of the N terminal 240-residues (other)
chain: MVVDEQQRLTAQLTLQRQKIQELTTNAKETHTKLALAEARVQEEEQKATRLEKELQTQTTKFHQDQDTIMAKLTNEDSQNRQLQQKLAALSRQIDELEETNRSLRKAEEELQDIKEKISKGEYGNAGIMAEVEELRKRVLDMEGKDEELIKMEEQCRDLNKRLERETLQSKDFKLEVEKLSKRIMALEKLEDAFNKSKQECYSLKCNLEKERMTTKQLSQELESLKVRIKELEAIESRLEKTEFTLKEDLTKLKTLTVMFVDERKTMSEKLKKTEDKLQAASSQLQVEQNKVTTVTEKLIEETKRALKSKTDVEEKMYSVTKERDDLKNKLKAEEEKGNDLLSRVNMLKNRLQSLEAIEKDFLKNKLNQDSGKSTTALHQENNKIKELSQEVERLKLKLKDMKAIEDDLMKTEDEYETLERRYANERDKAQFLSKELEHVKMELAKYKLAEKTETSHEQWLFKRLQEEEAKSGHLSREVDALKEKIHEYMATEDLICHLQGDHSVLQKKTKSTRKQEQRFRKRD
notes: Deletion mutant in yeast two-hybrid (GAL4 domain fusion)
